This experiment has as its target human AXL Ig1 domain fused to human Fc (Homo sapiens, UniProt P30530). As to the kind of experiment: BLI. (Biolayer interferometry detects binding as a change in optical thickness at a sensor tip.)

This is an account of results in publication doi:10.1101/2024.12.12.628227 (bioRxiv, 2024).

B1: parental scFv-osmY fusion protein (tilvestamab scFv) (scFv, V domains shown)
VH: EVQLVESGGGLVQPGGSLRLSCAASGYSFTDFYINWVRQAPGKGLEWVARIFPGGDNTYYNEKFKGRFTLSADTSKSTAYLQMNSLRAEDTAVYYCARRGLYYAMDYWGQGTLVTVSS
VL: DIQMTQSPSSLSASVGDRVTITCRSSQSLVHSNGIPYLHWYQQKPGKAPKLLIYRVSNRFSGVPSRFSGSGSGTDFTLTISSLQPEDFATYYCSQGTHVPPTFGQGTKVEIK
For B1, the binding result is listed as “binds”.

B2: tilvestamab scFv-osmY Y103A (scFv, V domains shown)
VH: EVQLVESGGGLVQPGGSLRLSCAASGYSFTDFYINWVRQAPGKGLEWVARIFPGGDNTYYNEKFKGRFTLSADTSKSTAYLQMNSLRAEDTAVYYCARRGLAYAMDYWGQGTLVTVSS
VL: DIQMTQSPSSLSASVGDRVTITCRSSQSLVHSNGIPYLHWYQQKPGKAPKLLIYRVSNRFSGVPSRFSGSGSGTDFTLTISSLQPEDFATYYCSQGTHVPPTFGQGTKVEIK
Regarding B2, the binding result was “binds”.

B3: tilvestamab scFv-osmY F33Y (scFv, V domains shown)
VH: EVQLVESGGGLVQPGGSLRLSCAASGYSFTDYYINWVRQAPGKGLEWVARIFPGGDNTYYNEKFKGRFTLSADTSKSTAYLQMNSLRAEDTAVYYCARRGLYYAMDYWGQGTLVTVSS
VL: DIQMTQSPSSLSASVGDRVTITCRSSQSLVHSNGIPYLHWYQQKPGKAPKLLIYRVSNRFSGVPSRFSGSGSGTDFTLTISSLQPEDFATYYCSQGTHVPPTFGQGTKVEIK
For B3, the binding result is recorded as “binds”.

B4: tilvestamab scFv-osmY G101A (scFv, V domains shown)
VH: EVQLVESGGGLVQPGGSLRLSCAASGYSFTDFYINWVRQAPGKGLEWVARIFPGGDNTYYNEKFKGRFTLSADTSKSTAYLQMNSLRAEDTAVYYCARRALYYAMDYWGQGTLVTVSS
VL: DIQMTQSPSSLSASVGDRVTITCRSSQSLVHSNGIPYLHWYQQKPGKAPKLLIYRVSNRFSGVPSRFSGSGSGTDFTLTISSLQPEDFATYYCSQGTHVPPTFGQGTKVEIK
Regarding B4, the binding result is listed as “binds”.

B5: tilvestamab scFv-osmY G233S (scFv, V domains shown)
VH: EVQLVESGGGLVQPGGSLRLSCAASGYSFTDFYINWVRQAPGKGLEWVARIFPGGDNTYYNEKFKGRFTLSADTSKSTAYLQMNSLRAEDTAVYYCARRGLYYAMDYWGQGTLVTVSS
VL: DIQMTQSPSSLSASVGDRVTITCRSSQSLVHSNGIPYLHWYQQKPGKAPKLLIYRVSNRFSGVPSRFSGSGSGTDFTLTISSLQPEDFATYYCSQSTHVPPTFGQGTKVEIK
For B5, the binding result is recorded as “binds”.

B6: tilvestamab scFv-osmY G233A (scFv, V domains shown)
VH: EVQLVESGGGLVQPGGSLRLSCAASGYSFTDFYINWVRQAPGKGLEWVARIFPGGDNTYYNEKFKGRFTLSADTSKSTAYLQMNSLRAEDTAVYYCARRGLYYAMDYWGQGTLVTVSS
VL: DIQMTQSPSSLSASVGDRVTITCRSSQSLVHSNGIPYLHWYQQKPGKAPKLLIYRVSNRFSGVPSRFSGSGSGTDFTLTISSLQPEDFATYYCSQATHVPPTFGQGTKVEIK
Regarding B6, the binding result was “binds”.

B7: tilvestamab scFv-osmY L102S (scFv, V domains shown)
VH: EVQLVESGGGLVQPGGSLRLSCAASGYSFTDFYINWVRQAPGKGLEWVARIFPGGDNTYYNEKFKGRFTLSADTSKSTAYLQMNSLRAEDTAVYYCARRGSYYAMDYWGQGTLVTVSS
VL: DIQMTQSPSSLSASVGDRVTITCRSSQSLVHSNGIPYLHWYQQKPGKAPKLLIYRVSNRFSGVPSRFSGSGSGTDFTLTISSLQPEDFATYYCSQGTHVPPTFGQGTKVEIK
For the molecule B7, the binding result is recorded as “binds”.

B8: tilvestamab scFv-osmY Y103S (scFv, V domains shown)
VH: EVQLVESGGGLVQPGGSLRLSCAASGYSFTDFYINWVRQAPGKGLEWVARIFPGGDNTYYNEKFKGRFTLSADTSKSTAYLQMNSLRAEDTAVYYCARRGLSYAMDYWGQGTLVTVSS
VL: DIQMTQSPSSLSASVGDRVTITCRSSQSLVHSNGIPYLHWYQQKPGKAPKLLIYRVSNRFSGVPSRFSGSGSGTDFTLTISSLQPEDFATYYCSQGTHVPPTFGQGTKVEIK
Consider B8, for which the binding result is given as “binds”.

B9: tilvestamab scFv-osmY P238A (scFv, V domains shown)
VH: EVQLVESGGGLVQPGGSLRLSCAASGYSFTDFYINWVRQAPGKGLEWVARIFPGGDNTYYNEKFKGRFTLSADTSKSTAYLQMNSLRAEDTAVYYCARRGLYYAMDYWGQGTLVTVSS
VL: DIQMTQSPSSLSASVGDRVTITCRSSQSLVHSNGIPYLHWYQQKPGKAPKLLIYRVSNRFSGVPSRFSGSGSGTDFTLTISSLQPEDFATYYCSQGTHVPATFGQGTKVEIK
For the molecule B9, the binding result is “binds”.

B10: tilvestamab scFv-osmY M106A (scFv, V domains shown)
VH: EVQLVESGGGLVQPGGSLRLSCAASGYSFTDFYINWVRQAPGKGLEWVARIFPGGDNTYYNEKFKGRFTLSADTSKSTAYLQMNSLRAEDTAVYYCARRGLYYAADYWGQGTLVTVSS
VL: DIQMTQSPSSLSASVGDRVTITCRSSQSLVHSNGIPYLHWYQQKPGKAPKLLIYRVSNRFSGVPSRFSGSGSGTDFTLTISSLQPEDFATYYCSQGTHVPPTFGQGTKVEIK
Take B10: the binding result was “binds”.

B11: tilvestamab scFv-osmY T31A (scFv, V domains shown)
VH: EVQLVESGGGLVQPGGSLRLSCAASGYSFADFYINWVRQAPGKGLEWVARIFPGGDNTYYNEKFKGRFTLSADTSKSTAYLQMNSLRAEDTAVYYCARRGLYYAMDYWGQGTLVTVSS
VL: DIQMTQSPSSLSASVGDRVTITCRSSQSLVHSNGIPYLHWYQQKPGKAPKLLIYRVSNRFSGVPSRFSGSGSGTDFTLTISSLQPEDFATYYCSQGTHVPPTFGQGTKVEIK
For B11, the binding result is recorded as “binds”.

B12: tilvestamab scFv-osmY L102A (scFv, V domains shown)
VH: EVQLVESGGGLVQPGGSLRLSCAASGYSFTDFYINWVRQAPGKGLEWVARIFPGGDNTYYNEKFKGRFTLSADTSKSTAYLQMNSLRAEDTAVYYCARRGAYYAMDYWGQGTLVTVSS
VL: DIQMTQSPSSLSASVGDRVTITCRSSQSLVHSNGIPYLHWYQQKPGKAPKLLIYRVSNRFSGVPSRFSGSGSGTDFTLTISSLQPEDFATYYCSQGTHVPPTFGQGTKVEIK
As to B12, the binding result is recorded as “binds”.

B13: tilvestamab scFv-osmY F33A (scFv, V domains shown)
VH: EVQLVESGGGLVQPGGSLRLSCAASGYSFTDAYINWVRQAPGKGLEWVARIFPGGDNTYYNEKFKGRFTLSADTSKSTAYLQMNSLRAEDTAVYYCARRGLYYAMDYWGQGTLVTVSS
VL: DIQMTQSPSSLSASVGDRVTITCRSSQSLVHSNGIPYLHWYQQKPGKAPKLLIYRVSNRFSGVPSRFSGSGSGTDFTLTISSLQPEDFATYYCSQGTHVPPTFGQGTKVEIK
Turning to B13, the binding result is reported as “binds”.

B14: tilvestamab scFv-osmY D32A (scFv, V domains shown)
VH: EVQLVESGGGLVQPGGSLRLSCAASGYSFTAFYINWVRQAPGKGLEWVARIFPGGDNTYYNEKFKGRFTLSADTSKSTAYLQMNSLRAEDTAVYYCARRGLYYAMDYWGQGTLVTVSS
VL: DIQMTQSPSSLSASVGDRVTITCRSSQSLVHSNGIPYLHWYQQKPGKAPKLLIYRVSNRFSGVPSRFSGSGSGTDFTLTISSLQPEDFATYYCSQGTHVPPTFGQGTKVEIK
Take B14: the binding result was “binds”.

B15: tilvestamab scFv-osmY Y108A (scFv, V domains shown)
VH: EVQLVESGGGLVQPGGSLRLSCAASGYSFTDFYINWVRQAPGKGLEWVARIFPGGDNTYYNEKFKGRFTLSADTSKSTAYLQMNSLRAEDTAVYYCARRGLYYAMDAWGQGTLVTVSS
VL: DIQMTQSPSSLSASVGDRVTITCRSSQSLVHSNGIPYLHWYQQKPGKAPKLLIYRVSNRFSGVPSRFSGSGSGTDFTLTISSLQPEDFATYYCSQGTHVPPTFGQGTKVEIK
With B15, the binding result was “binds”.

B16: tilvestamab scFv-osmY I35A (scFv, V domains shown)
VH: EVQLVESGGGLVQPGGSLRLSCAASGYSFTDFYANWVRQAPGKGLEWVARIFPGGDNTYYNEKFKGRFTLSADTSKSTAYLQMNSLRAEDTAVYYCARRGLYYAMDYWGQGTLVTVSS
VL: DIQMTQSPSSLSASVGDRVTITCRSSQSLVHSNGIPYLHWYQQKPGKAPKLLIYRVSNRFSGVPSRFSGSGSGTDFTLTISSLQPEDFATYYCSQGTHVPPTFGQGTKVEIK
Turning to B16, the binding result was “binds”.

B17: tilvestamab scFv-osmY L102Y (scFv, V domains shown)
VH: EVQLVESGGGLVQPGGSLRLSCAASGYSFTDFYINWVRQAPGKGLEWVARIFPGGDNTYYNEKFKGRFTLSADTSKSTAYLQMNSLRAEDTAVYYCARRGYYYAMDYWGQGTLVTVSS
VL: DIQMTQSPSSLSASVGDRVTITCRSSQSLVHSNGIPYLHWYQQKPGKAPKLLIYRVSNRFSGVPSRFSGSGSGTDFTLTISSLQPEDFATYYCSQGTHVPPTFGQGTKVEIK
Take B17: the binding result is recorded as “binds”.

B18: tilvestamab scFv-osmY F33S (scFv, V domains shown)
VH: EVQLVESGGGLVQPGGSLRLSCAASGYSFTDSYINWVRQAPGKGLEWVARIFPGGDNTYYNEKFKGRFTLSADTSKSTAYLQMNSLRAEDTAVYYCARRGLYYAMDYWGQGTLVTVSS
VL: DIQMTQSPSSLSASVGDRVTITCRSSQSLVHSNGIPYLHWYQQKPGKAPKLLIYRVSNRFSGVPSRFSGSGSGTDFTLTISSLQPEDFATYYCSQGTHVPPTFGQGTKVEIK
For B18, the binding result is given as “binds”.

B19: tilvestamab scFv-osmY L102T (scFv, V domains shown)
VH: EVQLVESGGGLVQPGGSLRLSCAASGYSFTDFYINWVRQAPGKGLEWVARIFPGGDNTYYNEKFKGRFTLSADTSKSTAYLQMNSLRAEDTAVYYCARRGTYYAMDYWGQGTLVTVSS
VL: DIQMTQSPSSLSASVGDRVTITCRSSQSLVHSNGIPYLHWYQQKPGKAPKLLIYRVSNRFSGVPSRFSGSGSGTDFTLTISSLQPEDFATYYCSQGTHVPPTFGQGTKVEIK
In the case of B19, the binding result is given as “binds”.

B20: tilvestamab scFv-osmY F33T (scFv, V domains shown)
VH: EVQLVESGGGLVQPGGSLRLSCAASGYSFTDTYINWVRQAPGKGLEWVARIFPGGDNTYYNEKFKGRFTLSADTSKSTAYLQMNSLRAEDTAVYYCARRGLYYAMDYWGQGTLVTVSS
VL: DIQMTQSPSSLSASVGDRVTITCRSSQSLVHSNGIPYLHWYQQKPGKAPKLLIYRVSNRFSGVPSRFSGSGSGTDFTLTISSLQPEDFATYYCSQGTHVPPTFGQGTKVEIK
In the case of B20, the binding result is reported as “binds”.
